Here are results for six molecules from CN114716553A (BEIJING KENUO XINCHENG TECH CO LTD, dated 2022).

Assay [1] has as its target T1, 人LILRB4 (on LILRB4-positive cells) (human, UniProt Q8NHJ6 22-448).
T1 construct: whole, on cells; also called 人LILRB4阳性细胞THP-1细胞; 人LILRB4阳性细胞RPMI-8226细胞
The assay can be described thus: flow cytometry on RPMI-8226 cells. On the technique in general: In flow cytometry, cells or beads pass a laser one at a time.

In assay [2] the target is T1, 人LILRB4 (on LILRB4-positive cells). In words: flow cytometry on THP-1 cells.
Assay [3] shares this target. In words: cell-based or functional assay.
Assay [4] addresses T2, 人LILRB4重组蛋白(购于义翘，Cat.16742-H08H) (human, UniProt Q8NHJ6 22-259).
T2 construct: Bought protein; also called human LILRB4 recombinant protein
The assay can be described thus: BLI (Octet QKe), antibody captured on AHC probe, antigen 100 nM, 1:1 Langmuir fit. A general note: BLI is a label-free optical method that tracks binding on a fibre tip over time.

Assay [5] concerns the target T3, 人LILRB4的重组蛋白 (phage library screening antigen) (human, UniProt Q8NHJ6 22-259, limits assumed).
T3 construct: May be the same protein as the immunogen or as m14
In words: solid phase screening of phage library.

B1: 对照抗体193 (antibody, IgG1, V domains shown)
VH: EVQLVESGGGLVQPGGSLRLSCAASGFSLSSSYWISWVRQAPGKGLEWIGSIDSGSVGITYYATWVKGRFTISRDNSKNTLYLQMNSLRAEDTAVYYCARHGDNWALDLWGQGTLVTVSS
VL: DIQMTQSPSTLSASVGDRVTITCRASQSINSWLAWYQQKPGKAPKLLIYKASTLASGVPSRFSGSGSGTEFTLTISSLQPDDAATYYCQHGYIRGDLDNVFGGGTKVEIK
notes: Variable regions cloned into vectors with human kappa / IgG1 constant regions and expressed in HEK293; also called 同靶点对照抗体193
As usually defined, the EC50 is the concentration at which the effect is half-maximal. A high value points to a need for much substance. The term Kd denotes the concentration at which binding is half-saturated. In general, koff refers to a measure of how fast the partners let go of each other. For orientation: kon means the second-order rate constant of association. Low readings indicate slow association, high ones fast association. B1: a half-maximal effect in assay [1] (EC50) was put at 0.227 nM. In assay [2], this molecule showed a half-maximal effective concentration (EC50) of 1.43 nM. Besides, in assay [3], the “EC50 of T cell activation (LILRB4 Effector Reporter cells with APOE/TCR Activator/CHO cells, luciferase)” value is 0.094 nM. Further, in assay [4], the Kd was found to be 0.721 nM, the koff turned out to be 0.00022 s⁻¹ and the kon stood at 305000 M⁻¹ s⁻¹.

B2: hzD2-1 (Fc fusion)
chain: EVQLVESGGGLVQPGGSLRLSCAASGFTVSSDYMGWFRQAPGKEREGVACINTNGGETYHANSVSGRFTISRDNSKNTLYLQMNSLRAEDTAVYYCARGRTNPDSYGGSRCLLAPEYTYWGQGTLVTVSS
notes: Humanised VHH of D2 fused to human Fc, expressed in HEK293; also called D2人源化分子hzD2-1; hzD2-1人源化抗体; not shown: human Fc (hFc) from the expression vector
Regarding B2, the EC50 in assay [1] is 0.221 nM. In assay [4], this molecule had a Kd of 1.03 nM, a koff of 0.000172 s⁻¹ and a kon of 167000 M⁻¹ s⁻¹.

B3: hzD2-2 (Fc fusion)
chain: EVQLVESGGGLVQPGGSLRLSCAASGYTASSDYMGWFRQAPGKEREGVACINTNGGETYHANSVSGRFTISRDNSKNTLYLQMNSLRAEDTAVYYCARGRTNPDSYGGSRCLLAPEYTYWGQGTLVTVSS
notes: Humanised VHH of D2 fused to human Fc, expressed in HEK293; also called D2人源化分子hzD2-2; hzD2-2人源化抗体; not shown: human Fc (hFc) from the expression vector
The molecule B3 had a half-maximal effective concentration (EC50) in assay [1] of 0.215 nM. Also, in assay [4], the Kd came to 0.948 nM, the dissociation rate constant (koff) was found to be 0.000175 s⁻¹ and the kon worked out at 185000 M⁻¹ s⁻¹.

B4: B2 (VHH)
VHH: QVQLQESGGGPVQAGGSLRLSCAASEYSYRRHCMAWFRQAPGKEREGVATIYTGGGITRYADSVKGRFTISQDNAKNTVYLQMNSLKPEDTAMYYCAADIASRACVTDPFPLERARFSAWGQGTQVTVSS
notes: also called 噬菌体展示的纳米抗体B2
Regarding B4, the binding result in assay [5] is recorded as “binds”.

B5: F1 (VHH)
VHH: QVQLQESGGGLVQAGGSLRLSCAASEYSYRRHCMAWFRQAPGKEREGVATIYTGGGITRYADSVKGRFTISQDNAKNTVYLQMNSLKPEDTAMYYCAADIASRACVTDPFPLERARFSAWGQGTQVTVSS
notes: also called 噬菌体展示的纳米抗体F1
Consider B5, for which the binding result in assay [5] was “binds”.

B6: C3 (VHH)
VHH: QVQLQESGGGLVQAGGSLRLSCVASEYIYTRCNMAWYRQAPGKERELVSAFDIGDTLYYADSVKGRFTISQDNAKNTVYLQMNSLKPEDTAMYYCNTVGVKPGGGSWCFNPDYWGQGTQVTVSS
notes: also called 噬菌体展示的纳米抗体C3
In the case of B6, the binding result in assay [5] is “binds”.
